Molecular target: human high affinity receptor for IL2 (IL2R) (human) (UniProt P01589)
Experiment: cell-based or functional assay

Chain of UniProt P01589 (P01589 22-272, chain 1 of 3): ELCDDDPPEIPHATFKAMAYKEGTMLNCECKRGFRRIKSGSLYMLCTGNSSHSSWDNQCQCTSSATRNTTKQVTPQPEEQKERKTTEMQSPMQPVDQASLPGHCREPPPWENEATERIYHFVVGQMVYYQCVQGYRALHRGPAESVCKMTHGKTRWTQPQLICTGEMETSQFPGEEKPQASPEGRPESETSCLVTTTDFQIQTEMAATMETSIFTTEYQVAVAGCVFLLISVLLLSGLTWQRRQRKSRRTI
Chain of UniProt P01589 (P14784 27-551, chain 2 of 3, further chain): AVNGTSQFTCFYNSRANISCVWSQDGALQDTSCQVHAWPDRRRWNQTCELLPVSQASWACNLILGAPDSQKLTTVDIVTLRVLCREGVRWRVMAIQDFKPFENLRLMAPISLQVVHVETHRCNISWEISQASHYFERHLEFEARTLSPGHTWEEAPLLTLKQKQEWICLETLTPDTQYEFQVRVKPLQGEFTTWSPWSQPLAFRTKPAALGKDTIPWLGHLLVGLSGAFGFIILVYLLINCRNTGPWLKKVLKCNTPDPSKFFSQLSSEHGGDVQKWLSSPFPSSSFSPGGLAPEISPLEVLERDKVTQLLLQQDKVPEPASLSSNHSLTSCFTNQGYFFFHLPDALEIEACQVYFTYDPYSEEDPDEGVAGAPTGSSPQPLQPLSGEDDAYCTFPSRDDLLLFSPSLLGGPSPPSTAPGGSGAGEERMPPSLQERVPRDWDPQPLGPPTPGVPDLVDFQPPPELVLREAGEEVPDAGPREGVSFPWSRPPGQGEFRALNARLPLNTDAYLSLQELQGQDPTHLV
Chain of UniProt P01589 (P31785 23-369, chain 3 of 3, further chain): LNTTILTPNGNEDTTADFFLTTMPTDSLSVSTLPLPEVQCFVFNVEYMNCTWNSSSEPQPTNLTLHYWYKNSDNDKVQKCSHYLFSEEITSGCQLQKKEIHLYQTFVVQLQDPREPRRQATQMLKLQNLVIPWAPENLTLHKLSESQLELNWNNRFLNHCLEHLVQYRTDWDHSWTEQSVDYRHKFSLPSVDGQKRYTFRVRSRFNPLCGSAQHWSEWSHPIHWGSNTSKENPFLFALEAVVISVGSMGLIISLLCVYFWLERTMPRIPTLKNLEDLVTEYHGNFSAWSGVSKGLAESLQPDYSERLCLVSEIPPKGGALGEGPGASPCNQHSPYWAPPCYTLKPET

**Q.** What does the source list for IL2-Bax chimeric protein?
**A.** M1, fresh lymphocytes analyzed by FACS, IL2-Bax 1 µg (Experiment No. 1): 17.5; M1, fresh lymphocytes analyzed by FACS, IL2-Bax 5 µg (Experiment No. 1): 24.3; M1, fresh lymphocytes analyzed by FACS, IL2-Bax 10 µg (Experiment No. 1): 42.1; M1 - 2, fresh lymphocytes analyzed by FACS, IL2-Bax 1 µg (Experiment No. 1): 13.5; M1 - 2, fresh lymphocytes analyzed by FACS, IL2-Bax 5 µg (Experiment No. 1): 20; M1 - 2, fresh lymphocytes analyzed by FACS, IL2-Bax 10 µg (Experiment No. 1): 35; M2, fresh lymphocytes analyzed by FACS, IL2-Bax 1 µg (Experiment No. 1): 4; M2, fresh lymphocytes analyzed by FACS, IL2-Bax 5 µg (Experiment No. 1): 4.3; M2, fresh lymphocytes analyzed by FACS, IL2-Bax 10 µg (Experiment No. 1): 9.1; UL + UR, fresh lymphocytes analyzed by FACS, IL2-Bax 1 µg (Experiment No. 2): 10.5; UL + UR, fresh lymphocytes analyzed by FACS, IL2-Bax 10 µg (Experiment No. 2): 31.6; UL, fresh lymphocytes analyzed by FACS, IL2-Bax 1 µg (Experiment No. 2): 4.98; UL, fresh lymphocytes analyzed by FACS, IL2-Bax 10 µg (Experiment No. 2): 14.7; UR, fresh lymphocytes analyzed by FACS, IL2-Bax 1 µg (Experiment No. 2): 5.56; UR, fresh lymphocytes analyzed by FACS, IL2-Bax 10 µg (Experiment No. 2): 16.8; apoptotic cells in fresh human lymphocytes treated with IL2-Bax (FACS): 2 to 14%; increase in the percentage of the apoptotic-cell population (sub-G1, FACS), HUT102 cells, highest concentration tested: 3.6 fold
